The record followed here is patent publication US20180280412A1.

This assay has as its target Ub-AMC substrate.

As to purified 26S proteasome (enzyme), the DUBs activity on Ub-AMC substrate came out at 3 fold.
